Measured values reported in publication PMC9493720.

Tests used:
[1] = target: human surfactant protein A (SP-A), native, supratrimeric (human) (UniProt Q8IWL2); assay: other fluorescence titration; intrinsic tryptophan fluorescence of SP-A (15 nM) or rfhSP-A (0.3 μM), polymyxin added at increasing concentrations, 25°C, 5 mM Tris-HCl pH 7.4 with 150 mM NaCl; apparent KD from the Hill equation
[2] = target: recombinant trimeric fragment of human SP-A1 (rfhSP-A) (human); assay: other fluorescence titration; intrinsic tryptophan fluorescence of rfhSP-A, PMB added, 25°C, 5 mM Tris-HCl pH 7.4 without NaCl; apparent KD from the Hill equation
[3] = target: human surfactant protein A (SP-A), native, supratrimeric (human) (UniProt Q8IWL2); assay: native gel or EMSA + other: electron microscopy + AUC; degree of oligomerization of isolated SP-A; electrophoresis under nondenaturing conditions, electron microscopy and analytical ultracentrifugation

Kd [1] [nM] | Kd [2] [nM] | stoichiometry N [3] | Substance
260 | – | – | polymyxin B nonapeptide (PMBN)
320 | 1370 | – | polymyxin B (PMB) (peptide)
– | – | > 18 | human surfactant protein A (SP-A), native, supratrimeric (from UniProt Q8IWL2 21-248) (natural protein)
